Reference: patent US20200199241A1 (Chugai, published 2020)

Target: T1, soluble human FcRn complexed with β2-microglobulin (human, UniProt P61769 21-119, limits assumed)
T1 construct: also called hFcRn
Test: Biacore SPR, pH 7.0;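 note: test antibodies captured on a Protein L chip with human FcRn flowed over as analyte, KD obtained as the ratio of dissociation to association rate constants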

Binder | Kd
IgG1-F1323 (antibody, EU numbering; copies: 2 + 2) heavy: QVQLQESGPGLVKPSETLSLTCAVSGHSISHDHAWSWVRQPPGEGLEWIGFISYSGITNYNPSLQGRVTISRDNSKNTLYLQMNSLRAEDTAVYYCARSLARTTAMDYWGEGTLVTVSSASTKGPSVFPLAPSSKSTSGGTAALGCLVKDYFPEPVTVSWNSGALTSGVHTFPAVLQSSGLYSLSSVVTVPSSSLGTQTYICNVNHKPSNTKVDKKVEPKSCDKTHTCPPCPAPELRGGPKVFLFPPKPKDTLYITRTPEVTCVVVDVSHEDPEVKFNWYVDGVEVHNAKTKPREEQYNSTYRVVSVLTVLHQDWLNGKEYKCKVSNKALPAPIEKTISKAKGQPREPQVYTLPPSRDELTKNQVSLTCLVKGFYPSDIAVEWESNGQPENNYKTTPPVLDSDGSFFLYSKLTVDKSRWQQGNVFSCSVMHEALDYHVTKKELSLSP light: not shown | 0.149 µM
IgG1-F1326 (antibody, copies: 2 + 2) heavy: QVQLQESGPGLVKPSETLSLTCAVSGHSISHDHAWSWVRQPPGEGLEWIGFISYSGITNYNPSLQGRVTISRDNSKNTLYLQMNSLRAEDTAVYYCARSLARTTAMDYWGEGTLVTVSSASTKGPSVFPLAPSSKSTSGGTAALGCLVKDYFPEPVTVSWNSGALTSGVHTFPAVLQSSGLYSLSSVVTVPSSSLGTQTYICNVNHKPSNTKVDKKVEPKSCDKTHTCPPCPAPEAAGGPSVFLFPPKPKDVLYISRTPEVTCVVVDVSHEDPEVKFNWYVDGVEVHNAKTKPREEQYNSTYRVVSVLQPLHADWLNGKEYKCKVSNKALPAPIEKTISKAKGQPREPQVYTLPPSRDELTKNQVSLTCLVKGFYPSDIAVEWESNGQPENNYKTTPPVLDSDGSFFLYSKLTVDKSRWQQGNVFSCSVMHEALHYHVTQKSLSLSP light: not shown | 0.0109 µM
IgG1-F1327 (antibody, copies: 2 + 2) heavy: QVQLQESGPGLVKPSETLSLTCAVSGHSISHDHAWSWVRQPPGEGLEWIGFISYSGITNYNPSLQGRVTISRDNSKNTLYLQMNSLRAEDTAVYYCARSLARTTAMDYWGEGTLVTVSSASTKGPSVFPLAPSSKSTSGGTAALGCLVKDYFPEPVTVSWNSGALTSGVHTFPAVLQSSGLYSLSSVVTVPSSSLGTQTYICNVNHKPSNTKVDKKVEPKSCDKTHTCPPCPAPEAAGGPSVFLFPPKPKDVLYISRTPEVTCVVVDVSHEDPEVKFNWYVDGVEVHNAKTKPREEQYASTYRVVSVLQPLHADWLNGKEYKCKVSNKALPAPIEKTISKAKGQPREPQVYTLPPSRDELTKNQVSLTCLVKGFYPSDIAVEWESNGQPENNYKTTPPVLDSDGSFFLYSKLTVDKSRWQQGNVFSCSVMHEALHYHVTQKSLSLSP light: not shown | 0.0141 µM

Now from value to binder:

Kd | Binder
0.129 µM | IgG1-F1329 (antibody, EU numbering; copies: 2 + 2) heavy: QVQLQESGPGLVKPSETLSLTCAVSGHSISHDHAWSWVRQPPGEGLEWIGFISYSGITNYNPSLQGRVTISRDNSKNTLYLQMNSLRAEDTAVYYCARSLARTTAMDYWGEGTLVTVSSASTKGPSVFPLAPSSKSTSGGTAALGCLVKDYFPEPVTVSWNSGALTSGVHTFPAVLQSSGLYSLSSVVTVPSSSLGTQTYICNVNHKPSNTKVDKKVEPKSCDKTHTCPPCPAPELRRGPKVFLFPPKPKDTLYITRTPEVTCVVVDVSHEDPEVKFNWYVDGVEVHNAKTKPREEQYNSTYRVVSVLTVLHQDWLNGKEYKCKVSNKALPAPIEKTISKAKGQPREPQVYTLPPSRDELTKNQVSLTCLVKGFYPSDIAVEWESNGQPENNYKTTPPVLDSDGSFFLYSKLTVDKSRWQQGNVFSCSVMHEALHYHVTRKELSLSP light: not shown
0.152 µM | IgG1-F1328 (antibody, EU numbering; copies: 2 + 2) heavy: QVQLQESGPGLVKPSETLSLTCAVSGHSISHDHAWSWVRQPPGEGLEWIGFISYSGITNYNPSLQGRVTISRDNSKNTLYLQMNSLRAEDTAVYYCARSLARTTAMDYWGEGTLVTVSSASTKGPSVFPLAPSSKSTSGGTAALGCLVKDYFPEPVTVSWNSGALTSGVHTFPAVLQSSGLYSLSSVVTVPSSSLGTQTYICNVNHKPSNTKVDKKVEPKSCDKTHTCPPCPAPELRRGPKVFLFPPKPKDTLYISRTPEVTCVVVDVSHEDPEVKFNWYVDGVEVHNAKTKPREEQYNSTYRVVSVLTVLHQDWLNGKEYKCKVSNKALPAPIEKTISKAKGQPREPQVYTLPPSRDELTKNQVSLTCLVKGFYPSDIAVEWESNGQPENNYKTTPPVLDSDGSFFLYSKLTVDKSRWQQGNVFSCSVMHEALHYHVTRKELSLSP light: not shown
